Experimental data: article doi:10.1101/2025.03.14.643221

Key:
[1] = system: LmuA(K68A), LmuA-KA;LmuB;LmuC; experiment: fluorescence anisotropy
[2] = target: SalEnt LmuA(K68A), catalytically dead nuclease effector, tag cleaved (Salmonella enterica subsp. enterica serovar Tennessee (strain TXSC_TXSC08-19)); experiment: cryo-EM structure
[3] = target: SalEnt LmuB, SMC-like (Rad50-like) ABC ATPase (Salmonella enterica subsp. enterica serovar Tennessee (strain TXSC_TXSC08-19)); experiment: cryo-EM structure

40-mer dsDNA 6-FAM gave a Kd [1] of 180 nM.

With “SalEnt LmuA(K68A), catalytically dead nuclease effector, tag cleaved (enzyme)” the stoichiometry N [2] was 4.

For “SalEnt LmuB, SMC-like (Rad50-like) ABC ATPase (natural protein)”, the stoichiometry N [3] was 2.
